This assay concerns the target TSH receptor (solubilized porcine thyroid membrane) (porcine (endogenous in thyroid membrane)) (UniProt Q8SPP9). The assay is described as follows: radioligand binding.
Chain of UniProt Q8SPP9 (Q8SPP9 22-764): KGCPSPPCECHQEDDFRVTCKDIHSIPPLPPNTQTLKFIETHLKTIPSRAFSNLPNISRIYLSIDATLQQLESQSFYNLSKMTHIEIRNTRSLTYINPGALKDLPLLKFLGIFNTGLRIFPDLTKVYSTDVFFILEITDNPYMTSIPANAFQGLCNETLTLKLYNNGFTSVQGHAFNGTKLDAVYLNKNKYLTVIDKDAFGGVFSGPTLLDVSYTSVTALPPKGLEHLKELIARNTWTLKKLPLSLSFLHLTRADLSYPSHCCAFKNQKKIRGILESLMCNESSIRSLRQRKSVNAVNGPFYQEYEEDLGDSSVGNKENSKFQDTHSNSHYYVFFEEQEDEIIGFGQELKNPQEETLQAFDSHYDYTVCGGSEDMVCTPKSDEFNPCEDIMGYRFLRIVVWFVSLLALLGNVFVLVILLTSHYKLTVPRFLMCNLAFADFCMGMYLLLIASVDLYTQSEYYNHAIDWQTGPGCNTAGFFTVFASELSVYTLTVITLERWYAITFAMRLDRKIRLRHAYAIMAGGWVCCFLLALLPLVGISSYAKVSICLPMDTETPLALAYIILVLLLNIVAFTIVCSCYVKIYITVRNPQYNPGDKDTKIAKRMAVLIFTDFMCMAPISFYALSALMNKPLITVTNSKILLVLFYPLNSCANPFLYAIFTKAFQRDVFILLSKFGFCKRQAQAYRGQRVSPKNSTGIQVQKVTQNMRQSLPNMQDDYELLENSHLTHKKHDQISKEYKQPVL

Consider “125I-labelled bTSH (bovine thyroid-stimulating hormone) (from UniProt P01217 25-120; P01223 21-132) (ligand)”, for which the cpm of bound 125I-bTSH (TSH receptor present, heat-treated normal pooled IgG) is 6950 cpm; the cpm of bound 125I-bTSH (TSH receptor present, normal pooled IgG) was determined as 7810 cpm; the cpm of bound 125I-bTSH, T B (Bo) came out at 7000 cpm.
